Tests used:
[1] = target: T1, recombinant human GPC-1 (NS0-produced glypican-1 antigen) (human, UniProt P35052 24-530); test: western blot, anti-mouse HRP detection
T1 construct: Bought recombinant protein; also called recombinant NS0 GPC-1; NS0-produced recombinant GPC-1 antigen
T1 sequence (looked up): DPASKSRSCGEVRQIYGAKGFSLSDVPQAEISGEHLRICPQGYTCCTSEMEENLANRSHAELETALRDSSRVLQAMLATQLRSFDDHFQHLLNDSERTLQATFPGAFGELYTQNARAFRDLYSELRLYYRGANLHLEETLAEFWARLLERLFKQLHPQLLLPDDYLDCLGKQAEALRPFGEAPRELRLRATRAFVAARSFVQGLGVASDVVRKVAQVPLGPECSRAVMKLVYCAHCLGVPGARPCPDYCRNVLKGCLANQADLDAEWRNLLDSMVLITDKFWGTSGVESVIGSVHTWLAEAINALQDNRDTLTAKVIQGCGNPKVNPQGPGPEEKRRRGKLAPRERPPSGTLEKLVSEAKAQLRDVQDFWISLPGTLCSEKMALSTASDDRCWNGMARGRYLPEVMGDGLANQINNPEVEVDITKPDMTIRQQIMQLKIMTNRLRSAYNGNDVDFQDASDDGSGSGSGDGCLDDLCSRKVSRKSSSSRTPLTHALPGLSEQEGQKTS
Procedure: Briefly, after transfer membranes were blocked with 5% skim milk in PBS-Tween (0.1%) for 2 h at room temperature. Primary antibodies (1 μg/ml in 5% skim milk—PBS-Tween (0.1%) were applied and incubated overnight at 4° C. After washing (3×10 min PBS-Tween (0.1%)) membranes were incubated with secondary antibody (1:2000 sheep-anti-mouse HRP-labelled in 5% skim milk—PBS-Tween (0.1%)). After washing (3×10 min PBS-Tween (0.1%)) antigen was detected by using ECL detection kit (Biorad) and imaging with LAS4000 mini (GE Life Science).

[2] = target: T2, GPC-1 (MIL-38 antigen) expressed by human cancer cell lines DU-145, T-24, PANC-1 and MDA-MB-231 (human, UniProt P35052 24-530); test: binding to DU-145 cells, graded in Table 4
T2 construct: whole, on cells; also called GPC-1 on the cell surface
T2 sequence (looked up): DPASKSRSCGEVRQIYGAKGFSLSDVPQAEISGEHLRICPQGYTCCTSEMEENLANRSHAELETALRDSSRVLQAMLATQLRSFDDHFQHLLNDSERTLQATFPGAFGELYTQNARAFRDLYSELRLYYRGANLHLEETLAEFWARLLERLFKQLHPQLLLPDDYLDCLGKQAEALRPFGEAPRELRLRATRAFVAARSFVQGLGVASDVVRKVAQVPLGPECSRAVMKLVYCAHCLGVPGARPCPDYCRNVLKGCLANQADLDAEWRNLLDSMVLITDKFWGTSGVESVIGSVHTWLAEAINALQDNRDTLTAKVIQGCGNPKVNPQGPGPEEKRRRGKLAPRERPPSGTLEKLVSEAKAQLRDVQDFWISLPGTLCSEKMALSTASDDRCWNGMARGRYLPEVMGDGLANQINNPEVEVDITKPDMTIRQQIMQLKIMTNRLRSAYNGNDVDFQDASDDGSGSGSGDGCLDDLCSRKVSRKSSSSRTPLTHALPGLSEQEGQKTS

[3] = target: T1, recombinant human GPC-1 (NS0-produced …); test: western blot, three-antibody detection
[4] = target: T2, GPC-1 (MIL-38 antigen) expressed by …; test: flow cytometry, CY5-labelled scFv on DU-145 cells
[5] = target: T1, recombinant human GPC-1 (NS0-produced …); test: direct binding ELISA, GPC-1 coated
[6] = target: T2, GPC-1 (MIL-38 antigen) expressed by …; test: flow cytometry on DU-145 cells (FIG. 10)

B1: murine MIL-38 monoclonal antibody, AM4 population, clone 1F5 (hybridoma CBA20140026) (antibody, mouse IgG1, kappa)
heavy: QIQLVQSGPELKKPGETVKISCKASGYAFTDYSMNWVKQAPGKGLRWMGWINTETGEPTYTDDFKGRFAFSLETSASTAFLQINNLRNEDTATYFCARHYDYGGFPYWGQGTLVTVSAAKTTPPSVYPLAPGSAAQTNSMVTLGCLVKGYFPEPVTVTWNSGSLSSGVHTFPAVLQSDLYTLSSSVTVPSSTWPSETVTCNVAHPASSTKVDKKIVPRDCGCKPCICTVPEVSSVFIFPPKPKDVLTITLTPKVTCVVVDISKDDPEVQFSWFVDDVEVHTAQTQPREEQFNSTFRSVSELPIMHQDWLNGKEFKCRVNSAAFPAPIEKTISKTKGRPKAPQVYTIPPPKEQMAKDKVSLTCMITDFFPEDITVEWQWNGQPAENYKNTQPIMDTDGSYFVYSKLNVQKSNWEAGNTFTCSVLHEGLHNHHTEKSLSHSPGK
light: DIQMTQSPASLSASVGETVTITCRASGNVHNYLAWYQQKQGKSPQLLVYTAKTLADGVPSRFSGSGSGTQYSLKINSLQPEDFGTYYCQHFWSNPWTFGGGTKLEIKRADAAPTVSIFPPSSEQLTSGGASVVCFLNNFYPKDINVKWKIDGSERQNGVLNSWTDQDSKDSTYSMSSTLTLTKDEYERHNSYTCEATHKTSTSPIVKSFNRNEC
notes: Mouse IgG1 kappa; Leader 1-19 (heavy) and 1-20 (light) are stated and left out; 1F5 is named an AM4 clone; also called AM4 MIL-38; AM4 1F5
binding result [1]: binds | binding result [2]: binds

B2: chimeric MIL-38 antibody (mouse VH-human CH1-CH3 heavy chain, mouse VK-human CK light chain) (antibody)
heavy: not shown
light: DIQMTQSPASLSASVGETVTITCRASGNVHNYLAWYQQKQGKSPQLLVYTAKTLADGVPSRFSGSGSGTQYSLKINSLQPEDFGTYYCQHFWSNPWTFGGGTKLEIKRTVAAPSVFIFPPSDEQLKSGTASVVCLLNNFYPREAKVQWKVDNALQSGNSQESVTEQDSKDSTYSLSSTLTLSKADYEKHKVYACEVTHQGLSSPVTKSFNRGEC
notes: Human IgG1 kappa constant regions; also called chMIL-38; MIL-38 chimeric antibody
binding result [3]: binds | binding result [2]: binds

B3: scFv MIL-38 (scFv)
scFv: QIQLVQSGPELKKPGETVKISCKASGYAFTDYSMNWVKQAPGKGLRWMGWINTETGEPTYTDDFKGRFAFSLETSASTAFLQINNLRNEDTATYFCARHYDYGGFPYWGQGTLVTVSSGGGGSGGGGSGGGGSDIQMTQSPASLSASVGETVTITCRASGNVHNYLAWYQQKQGKSPQLLVYTAKTLADGVPSRFSGSGSGTQYSLKINSLQPEDFGTYYCQHFWSNPWTFGGGTKLEIKHHHHHHC
modifications: CY5 fluorophor label (site not stated)
notes: VH (20-137), gly/ser linker (138-152), VL (153-259), hexa-His tag (260-265), C-terminal cysteine (266); Leader 1-19 is stated and left out; also called MIL-38 scFv; scFv MIL-38 construct
binding result [4]: binds

B4: chimeric MIL-38 DOTA conjugate (antibody, human IgG1, kappa)
heavy: not shown
light: DIQMTQSPASLSASVGETVTITCRASGNVHNYLAWYQQKQGKSPQLLVYTAKTLADGVPSRFSGSGSGTQYSLKINSLQPEDFGTYYCQHFWSNPWTFGGGTKLEIKRTVAAPSVFIFPPSDEQLKSGTASVVCLLNNFYPREAKVQWKVDNALQSGNSQESVTEQDSKDSTYSLSSTLTLSKADYEKHKVYACEVTHQGLSSPVTKSFNRGEC
modifications: p-SCN-Bn-DOTA conjugated; sites not stated; p-SCN-Bn-DOTA conjugated; 4.3, 4.6 or 7.5 DOTA per MAb for 5, 10 or 20 fold excess; sites not stated
notes: also called chMIL-38 DOTA; DOTA-cMIL-38
binding result [5]: binds | binding result [6]: binds
